Experiment [1] deals with T1, nucleosome with the 185-bp DNA fragment (human, UniProt P0C0S8 2-130; P62807 2-124; P68431 2-136; P62805 2-103). Description: MST; 185-bp nucleosome.
Experiment [2] deals with T1, nucleosome with the 185-bp DNA fragment. Description: nucleosome with 185-bp DNA.

B1: NSD2 E1099K mutant protein (973-1226) (domain or fragment)
chain: KLQREARETQESERKPPPYKHIKVNKPYGKVQIYTADISEIPKCNCKPTDENPCGFDSECLNRMLMFECHPQVCPAGEFCQNQCFTKRQYPETKIIKTDGKGWGLVAKRDIRKGEFVNEYVGELIDKEECMARIKHAHENDITHFYMLTIDKDRIIDAGPKGNYSRFMNHSCQPNCETLKWTVNGDTRVGLFAVCDIPAGTELTFNYNLDCLGNEKTVCRCGASNCSGFLGDRPKTSTTLSSEEKGKKTKKKTR
As a reminder, the Kd is a measure of binding affinity in units of concentration. A high value points to weaker binding. In the case of B1, the Kd in experiment [1] and in experiment [2] was 202 nM in each case.

B2: NSD2 T1150A mutant protein (973-1226) (domain or fragment)
chain: KLQREARETQESERKPPPYKHIKVNKPYGKVQIYTADISEIPKCNCKPTDENPCGFDSECLNRMLMFECHPQVCPAGEFCQNQCFTKRQYPETKIIKTDGKGWGLVAKRDIRKGEFVNEYVGELIDEEECMARIKHAHENDITHFYMLTIDKDRIIDAGPKGNYSRFMNHSCQPNCEALKWTVNGDTRVGLFAVCDIPAGTELTFNYNLDCLGNEKTVCRCGASNCSGFLGDRPKTSTTLSSEEKGKKTKKKTR
In the case of B2, the Kd in experiment [1] and in experiment [2] was 70 nM each time.

B3: wild-type NSD2 protein (973-1226) (domain or fragment)
chain: KLQREARETQESERKPPPYKHIKVNKPYGKVQIYTADISEIPKCNCKPTDENPCGFDSECLNRMLMFECHPQVCPAGEFCQNQCFTKRQYPETKIIKTDGKGWGLVAKRDIRKGEFVNEYVGELIDEEECMARIKHAHENDITHFYMLTIDKDRIIDAGPKGNYSRFMNHSCQPNCETLKWTVNGDTRVGLFAVCDIPAGTELTFNYNLDCLGNEKTVCRCGASNCSGFLGDRPKTSTTLSSEEKGKKTKKKTR
With B3, the Kd in experiment [1] and in experiment [2] was 88 nM in each case.

The values above are taken from article PMC8593083 (2021).
